Molecular target: T1, RNF31 PUB domain (Homo sapiens, UniProt Q96EP0)
T1 construct: MBP-TEV (N, cleaved yes); made in house; host or cells: E. coli BL21 (DE3) pLysS
T1 sequence (Q96EP0 1-179): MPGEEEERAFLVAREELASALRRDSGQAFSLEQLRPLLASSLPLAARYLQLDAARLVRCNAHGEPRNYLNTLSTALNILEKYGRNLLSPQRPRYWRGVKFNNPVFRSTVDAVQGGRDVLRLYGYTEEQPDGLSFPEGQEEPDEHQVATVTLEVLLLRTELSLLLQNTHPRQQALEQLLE
Test: Phage Library Screening with NGS, RNF31 PUB domain
Assay type: binding
Conditions: for Phage library screen NGS readout, Target Concentration 10 / Phage library screen NGS readout, Target Concentration 30 / Phage library screen NGS readout, Target Concentration 100 / Phage library screen NGS readout, Target Concentration 300 / Phage library screen NGS readout, Target Concentration 1000: RNF31 PUB domain clusters C41-C45; for Phage library screen NGS readout, BLANK: clusters C41-C45

[1] = target concentration 1000, first column
[2] = target concentration 1000, second column

| Sequence | Phage library screen NGS readout, Target Concentration 10 | Phage library screen NGS readout, Target Concentration 30 | Phage library screen NGS readout, Target Concentration 100 | Phage library screen NGS readout, Target Concentration 300 | Phage library screen NGS readout, Target Concentration 1000 [1] | Phage library screen NGS readout, Target Concentration 1000 [2] | Phage library screen NGS readout, BLANK (column 1 of 5) | Phage library screen NGS readout, BLANK (column 2 of 5) | Phage library screen NGS readout, BLANK (column 3 of 5) | Phage library screen NGS readout, BLANK (column 4 of 5) | Phage library screen NGS readout, BLANK (column 5 of 5) |
| --- | --- | --- | --- | --- | --- | --- | --- | --- | --- | --- | --- |
| DPAYDLCLNAAVACTYV | 0 | 2 | 2 | 19 | 62 | 71 | 1 | 2 | 1 | 0 | 0 |
| DPAYWDCMYAAFYCDDI | 0 | 0 | 0 | 3 | 3 | 8 | 0 | 0 | 0 | 0 | 2 |
| DPAHTWCMYAAFDCFES | 1 | 0 | 0 | 1 | 9 | 4 | 1 | 2 | 2 | 0 | 0 |
| DPAEDECDWAALYCDMQ | 0 | 0 | 0 | 1 | 7 | 6 | 0 | 0 | 0 | 0 | 0 |
| DPARRECWDAAILCTYY | 0 | 0 | 1 | 12 | 40 | 44 | 0 | 0 | 1 | 0 | 0 |
| DPASEWCLDAAVLCTYS | 0 | 0 | 3 | 18 | 63 | 65 | 2 | 0 | 0 | 0 | 0 |

Continued, values first:

| Phage library screen NGS readout, Target Concentration 10 | Phage library screen NGS readout, Target Concentration 30 | Phage library screen NGS readout, Target Concentration 100 | Phage library screen NGS readout, Target Concentration 300 | Phage library screen NGS readout, Target Concentration 1000 [1] | Phage library screen NGS readout, Target Concentration 1000 [2] | Phage library screen NGS readout, BLANK (column 1 of 5) | Phage library screen NGS readout, BLANK (column 2 of 5) | Phage library screen NGS readout, BLANK (column 3 of 5) | Phage library screen NGS readout, BLANK (column 4 of 5) | Phage library screen NGS readout, BLANK (column 5 of 5) | Sequence |
| --- | --- | --- | --- | --- | --- | --- | --- | --- | --- | --- | --- |
| 0 | 0 | 0 | 3 | 26 | 26 | 0 | 0 | 0 | 0 | 0 | DPAFHDCQFAAAVCSTY |
| 0 | 0 | 0 | 2 | 8 | 4 | 0 | 0 | 0 | 0 | 0 | DPAIQECLLAAATCWTY |

Reference: patent US20240376151A1, “STAPLED PEPTIDES AND METHODS THEREOF” (FOG PHARMACEUTICALS, INC., priority 2022, published 2024)
